Reference: US11034728B2, “Peptides for binding epidermal growth factor” (3M INNOVATIVE PROPERTIES COMPANY, priority 2016, dated 2021)
Ends that are not written are not given here.

What was measured:
[1] = target: T1, EGF (Homo sapiens, UniProt P01133); assay: Dot blotting analysis, EGF spotted on membrane, probed with biotinylated peptide and Streptavidin-HRP; type: binding; set-up: Recombinant Human Epidermal Growth Factor (EGF); purchased Abcam plc, Cambridge, Mass; settings: EGF 10 nM spotted; biotinylated peptide 10 ng/mL; Streptavidin-HRP, TMB
Protocol: EGF (1 microliter of a 10 nM solution in PBS was spotted a nitrocellulose membrane (obtained from Thermo Fisher Scientific) and the membrane was dried in air for about 30 minutes. The membrane was then incubated in 15 mL of blocking buffer (3 wt. % BSA in PBS) for one hour at room temperature. The membrane was washed three times (15 minutes for each wash) with 15 mL portions of fresh PBST. The washed membrane was incubated with Biotinylated SEQ ID NO: 1 [10 mL of a 10 ng/mL solution in blocking buffer (3 wt. % BSA in PBS)] with gentle agitation for one hour. The membrane was again washed three times (15 minutes for each wash) with 15 mL portions of fresh PBST. The washed membrane was incubated with Streptavidin-HRP [1:5000 dilution in 10 mL of the blocking buffer (3 wt. % BSA in PBS)] for 30 minutes with gentle agitation. Following the incubation, the membrane was washed three times (15 minutes for each wash) with 15 mL portions of fresh PBST. The washed membrane was incubated with 10 mL of the development solution for horseradish peroxidase (TMB-Blotting Substrate Solution, Pierce-Fisher Scientific) with gentle agitation. The color development was stopped by adding water.

[2] = target: T1, EGF; assay: biochemical; settings: binding affinity (KD) for EGF, linker modified peptide immobilized on CM5 chip, Biacore 3000, 25° C., HBS-EP, EGF 62.5-1000 nM, 1-to-1 Langmuir fit
Protocol: “Test Method A” refers to the following general surface plasmon resonance (SPR) binding assay. Target protein (e.g., EGF and TNF-□) is immobilized at 25° C. and diluted peptides are injected for 3 min at a flow rate of 10 μl/min at 25° C. Binding assay is performed according to detailed Test method A in Examples.
The following Test Method A was used for determining the binding affinity (KD) of SEQ ID NO: 1 for EGF and TNF-□□ Binding experiments were performed using Biacore 3000 optical biosensors equipped with research-grade CM5 sensor chips (GE Healthcare Bio-Sciences Corporation). The reagents used for the amine-coupling steps [(1-ethyl-3-(3-dimethylaminopropyl)-carbodiimide (EDC); N-hydroxysuccinimide (NHS); and ethanolamine hydrochloride-NaOH (1 M, pH 8.5)] were obtained from GE Healthcare Bio-Sciences Corporation. In order to efficiently immobilize the peptide on the sensor chips, a modified version of SEQ ID NO:1 was prepared by SPPS in which a “CK” amino acid linker sequence was added to the N-terminal end of the SEQ ID NO: 1 peptide (i.e. linker modified version of SEQ ID NO: 1 for immobilization being [sequence]). A standard coupling protocol was employed to immobilize the linker modified version of SEQ ID NO: 1 via the lysine residues. The immobilization was performed at 25° C. using HBS-EP as the running buffer. […]

T1 sequence (P01133 971-1023 limits assumed): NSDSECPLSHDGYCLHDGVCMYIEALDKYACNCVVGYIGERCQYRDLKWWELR

Row | Substance | Dot blot colour development at EGF application site (affinity for EGF) [1] | Kd [2]
1 | Biotinylated SEQ ID NO: 1: Biotinylated version of peptide SEQ ID NO: 1, obtained from GenScript (YVSPGMKNVNWWSHWWHATD; also: biotinylated, place not given here) | A dark spot developed | 
2 | Ac-YVSPGMKNVNWWSHWWHATD-NH2 [SEQ ID NO: 1] |  | 700 nM
